In US20250108100A1, “C-TERMINAL FRAGMENT OF APOLIPOPROTEIN E AND APPLICATION THEREOF IN INHIBITING y-SECRETASE ACTIVITY” (SYNPHATEC (SHANGHAI) BIOPHARMACEUTICAL TECHNOLOGY CO., LTD., priority 2022, published 2025):
Entries after “also recorded” stand apart in the source; their conditions may differ.

Key:
[1] = test system: human APP and β-secretase co-expressed in HEK 293T cells; assay: HEK 293T cells co-expressing APP and β-secretase (BACE1): Aβ ELISA and β-CTF Western blot; format: cell-based
Description: The experiment was performed according to the standard procedure in the ELISA analysis kit of Invitrogen Company. • a) The target protein was expressed in HEK 293T cell line. Cells were subcultured one day before transfection, and transfection was performed when the degree of cell adhesion reached 70%-80%. The transfection reagent was lipofectamine2000 (ThermoFisher). • b) 4-6 hours post transfection, medium were replaced with fresh cell culture medium. • c) 36-48 hours post transfection, the cell culture medium was collected, and then the ELISA process was performed or the cell culture medium was frozen in a −80° C. refrigerator. • d) 50 μl of standard samples and experimental samples were added to each well of the 96-well plate. • e) 50 μl of human-derived Aβ40 or Aβ42 or mouse-derived Aβ40 detection antibody was added to each well of the 96-well plate. • f) The above samples were shaken gently and placed at room temperature for 3 hours. • g) The liquid in the well were removed, and the plate was washed 4 times with 1× wash buffer. • h) 100 μl of the buffer containing 1× anti-Rabbit IgG HRP was added. • i) The plate was shaken gently and placed at room temperature for […]. • j) The liquid in the well were removed, and the well was washed 4 times with 1× wash buffer. • k) 100 μl of Stabilized Chromogen was added to each well, and the plate was placed in the dark for 30 minutes at room temperature. • l) 100 μl of Stop Solution was added to each well. • m) The absorbance at 450 nm was measured with a microplate reader. 2.4 qRT-PCR
48 hours after transfection of HEK 293T cells and N2A cells, or 4.5 days after lentivirus infection of neurons, media and lysates were collected. Aβ40 and Aβ42 in the culture medium and cell lysates were detected by an Aβ ELISA kit as indicated in the protocol. (Invitrogen Technology; KHB3481 for human Aβ40, KHB3441 for human Aβ42 and KMB3481 for mouse Aβ40).
Data were analyzed by GraphPad Prism software (v6) using unpaired, paired, or one-sample t-tests. Aβ40 and Aβ42 levels were normalized to the corresponding GFP controls. α-CTF levels were normalized to FL-APP and corresponding GFP controls. All data are represented as mean±SEM. Statistical significance was defined as p<0.05. One, two, three and four stars (*) in the graph indicate p-values <0.05, <0.01, <0.001 and <0.0001, respectively.

[2] = test system: ADAM10, BACE1, PS1 and PS2; assay: mRNA (qRT-PCR) and protein (Western blot) expression of APP secretases in HEK 293T cells; format: cell-based, human
Description: • a) A plasmid expressing the target protein in mammalian cells was constructed, and the protein expression promoter is CAG. • b) The target protein was expressed in HEK 293T cell line. Cells were subcultured one day before transfection, and transfection was performed when the degree of cell adhesion reached 70%-80%. The transfection reagent was lipofectamine2000 (ThermoFisher). • c) 4-6 hours post transfection, the medium were replaced with fresh cell culture medium. • d) 36-48 hours post transfection, the cells were lysed (10% 1M tris-HCl (pH=6.8), 4% SDS, 20% glycerol, 0.01% bromophenol blue), and the protein samples were collected and used for Western blot or stored in a −80° C. freezer. • e) Polyacrylamide gel electrophoresis. Before protein loading, the protein was boiled at 98° C. for 10 min, and then centrifuged at 12000 rpm for 10 min. Electrophoresis: 80V for the upper stacking gel; 120V for the lower separating gel. • f) Protein transfer. The filter paper was soaked in the electrophoresis solution before use, and the PVDF membrane was put in methanol for 10s to activate, and the gel after electrophoresis was taken out from the electrophoresis tank, put in the order of filter paper—PVD membrane—gel-filter paper from bottom to top, and they were put into the transfer instrument, with transferring in constant current at 0.1 A for 70 min. • g) Blocking and antibody incubation: the transferred PVDF membrane was placed in 5% BSA/TBST blocking solution, and blocked on a shaker at room temperature for 1 hour. The primary antibody was used to incubate at 4° C. overnight on a shaker (12-16 h); 1×TBST was used to wash three times, once every 10 minutes; the secondary antibody was used to incubate, shaked at room temperature for 1-2 h; 1×TBST was used to wash three times, once every 10 minutes. • h) Imaging by development: development was performed with ECL chemiluminescence hypersensitive chromogenic reagent. […]
Quantitect SYBR-Green qRT-PCR kit from Qiagen was used to quantitatively analyze the relative content of mRNA. qRT-PCR primers were listed in Table 2. […]

B1: ApoE CT: C-terminal fragment of ApoE, positions 216-299 of SEQ ID NO: 12; SEQ ID NO: 33 (protein)
chain: ARMEEMGSRTRDRLDEVKEQVAEVRAKLEEQAQQIRLQAEAFQARLKSWFEPLVEDMQRQWAGLVEKVQAAVGTSAAPVPSDNH
Aβ40 in the presence of GI254023X ([1]; APP and BACE1, 1 μM GI254023X): decrease Aβ40
β-CTF levels ([1]; APP and BACE1, Western blot): did not alter β-CTF levels
production of Aβ40 ([1]; APP and β-secretase co-expressed, ELISA, vs GFP control): decreased Aβ40
Aβ40 in cell lysates, decreased by ([1]; APP, BACE1): about 42%
Aβ40 secreted into the cell culture medium, reduced by ([1]; APP, BACE1): about 75%
Aβ42, reduced by ([1]; APP, BACE1): about 74%
ratio of Aβ42/Aβ40 ([1]; APP, BACE1): remains unchanged
Aβ40 ([1]; ELISA): 25 % of GFP control
Aβ42 ([1]; ELISA): about 26 % of GFP control
protein expression of APP metabolizing enzymes ([2]; Western blot): does not affect the protein expression
mRNA expression of APP metabolizing enzymes ([2]; qRT-PCR): does not affect the mRNA expression
mRNA and protein expression of ADAM10, BACE1, PS1 and PS2 ([2]; qRT-PCR and Western blot, vs GFP control): does not change the mRNA and protein expression; also recorded: not altered
